Measurements from the supplement of paper PMC10567573.

B1: SERPINB5 (parent)
chain: FPESETKECPFRVNKVCGAACSSK

Variants of: B1
Test: protein stability index of a GFP-peptide fusion (GPS, HEK-293T) (PSI 1-6); higher = more stable
Conditions: c terminus: a fixed tail appended
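Note: lentivirally expressed fusions sorted by FACS into six bins by GFP to DsRed ratio, PSI derived from sequencing read proportions per bin multiplied by bin number.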

Protein stability index of substitutions, site by site:
K7: Q 2.86 | P 2.76 | V 2.53 | I 2.55 | Y 1.97 | T 3.1 | D 3.22 | R 2.88 | E 2.78 | W 1.34 | G 2.52 | C 3.21 | N 3.05 | M 2.5 | A 2.43 | F 1.89 | L 2.5 | S 2.69 | H 3.36
A19: Q 2.7 | L 2.96 | N 2.61 | Y 2.29 | I 2.63 | V 2.41 | R 2.52 | S 2.92 | P 2.08 | K 2.51 | W 2.08 | D 3.03 | E 2.5 | F 2.02 | H 2.51 | T 2.62 | G 2.81 | M 2.36
N14: E 3.29 | S 2.45 | A 2.2 | W 2.4 | P 2.47 | V 2.08 | R 2.17 | L 2.35 | D 3.17 | I 1.96 | M 2.98 | Q 3.29 | T 2.5 | G 2.02 | H 3.27 | C 2.69 | F 2.15 | K 2.07 | Y 2.19
R12: C 4.62 | K 3.57 | H 3.83 | I 2.57 | V 2.43 | A 3.76 | E 4.59 | D 4.86 | L 2.68 | N 3.66 | G 4.11 | Q 3.36 | S 3.95 | Y 3.43 | W 2.87 | M 2.86 | P 4.75 | F 3.56 | T 3.84
C9: N 3 | T 2.64 | I 4.39 | H 1.83 | M 3.81 | L 3.6 | Q 4.03 | A 4.49 | F 1.81 | Y 2.92 | G 2.82 | E 4.84 | P 4.51 | W 2.07 | K 4.37 | R 4.34 | V 4.4 | S 2.15 | D 3.87
C21: K 3.19 | T 2.62 | G 2.69 | I 2.04 | L 2.2 | A 2.76 | M 2.35 | Y 2.51 | V 2.56 | P 2.23 | E 3.19 | R 2.56 | F 1.94 | H 2.44 | S 2.9 | W 1.38 | D 2.81 | Q 2.22 | N 2.44
V16: E 3.12 | I 2.04 | S 2.28 | L 1.86 | G 2.9 | A 3.03 | T 2.71 | H 2.17 | C 2.24 | D 2.89 | Y 2.14 | F 2.57 | K 2.61 | N 2.82 | P 2.11 | R 2.8 | M 2.18 | W 2.49 | Q 2.67
K15: C 3.04 | E 2.83 | D 3.01 | P 2.58 | N 2.24 | I 2.12 | G 2.22 | F 2.12 | Q 2.52 | R 2.76 | W 1.32 | L 2.61 | V 2.1 | T 2.48 | H 4.17 | S 2.32 | Y 2.4 | A 3.17 | M 2.38
F11: Q 5.04 | S 5.28 | W 2.16 | K 5.11 | M 4.48 | P 4.96 | R 4.67 | A 4.43 | N 5.12 | E 4.43 | G 2.87 | V 4.25 | L 4.31 | H 5.17 | D 5.06 | T 4.45 | C 3.71 | Y 2.99 | I 4.74
A20: W 1.94 | P 2.49 | S 2.29 | K 2.26 | H 2.58 | I 2.32 | G 3.22 | C 2.17 | T 3.22 | F 1.95 | M 2.01 | L 2.79 | V 2.67 | Y 2.27 | R 2.53 | Q 2.09 | N 3.18 | D 2.69 | E 2.84
P10: Q 3.58 | Y 2.3 | V 3.05 | E 4.31 | K 3.75 | G 4.1 | I 2.53 | D 4.78 | T 3.67 | C 3.05 | S 3.96 | H 3.62 | F 2.55 | L 2.14 | N 4.02 | R 3.63 | A 2.95 | M 3.41
G18: P 2.42 | K 3.24 | S 3.42 | A 2.65 | H 2.59 | C 2.54 | R 2.43 | V 1.75 | L 2.05 | F 2.09 | N 2.59 | E 2.6 | Q 2.66 | Y 2.09 | T 2.35 | W 3.39 | I 2.1 | M 2.56 | D 2.89
E8: T 2.6 | Y 1.93 | I 2.13 | H 2.14 | A 2.25 | K 3.04 | C 2.23 | N 2.17 | V 2.59 | S 2.14 | W 1.66 | P 2.29 | M 1.86 | D 2.16 | L 2.33 | G 1.9 | F 1.97 | R 1.82 | Q 1.98
E5: H 1.4 | N 1.89 | V 2.52 | Y 1.87 | R 1.9 | M 2.35 | I 1.8 | S 1.97 | F 1.6 | Q 1.4 | L 1.78 | D 1.92 | K 1.67 | T 2.11 | G 1.68 | P 3.05
T6: Y 2.28 | R 2.63 | Q 2.95 | W 2.65 | V 3.18 | N 2.2 | P 2.91 | M 2.63 | C 2.38 | L 2.1 | H 2.56 | E 3.47 | G 2.09 | S 2.36 | D 2.47 | I 2.82 | A 2.68 | K 2.28 | F 2.23
S22: D 2.66 | P 2.67 | R 2.36 | M 2.4 | F 1.66 | L 1.93 | H 2.55 | Q 2.66 | T 2.39 | K 2.39 | I 2.27 | A 3.52 | G 3.07 | E 2.57 | C 2.27 | N 2.62
V13: D 4.31 | T 3.54 | Q 4.03 | G 3.81 | M 3.1 | K 3.93 | E 4.17 | H 4.26 | C 3.09 | W 2.19 | R 3.59 | A 3.14 | N 3.71 | L 3.19 | Y 2.03 | F 2.59 | P 3.02 | S 3.66 | I 2.6
C17: Q 2.4 | G 2.91 | S 3.13 | K 3.12 | A 3.29 | R 2.48 | T 2.68 | I 3.16 | P 2.29 | V 2.88 | Y 2.51 | H 2.45 | F 2.79 | N 2.99 | D 2.81 | L 2.47 | M 2.49 | W 1.76 | E 2.98
